Experimental data taken from publication PMC12588321, “Congenital heart disease missense mutations in the TBX5 DNA-binding domain alter thermal stability and DNA-binding affinity”.
Substitutions are numbered along the chain they refer to.

T1: TBX5 T-box domain I54T (human? (UniProt Q99593 used for …, UniProt Q99593 48-248, I54T))
T1 sequence: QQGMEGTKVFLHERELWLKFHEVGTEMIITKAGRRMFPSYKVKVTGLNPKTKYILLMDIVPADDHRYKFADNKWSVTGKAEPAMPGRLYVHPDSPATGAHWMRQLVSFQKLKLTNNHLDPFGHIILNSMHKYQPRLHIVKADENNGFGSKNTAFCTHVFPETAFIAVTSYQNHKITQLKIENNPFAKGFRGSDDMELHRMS

T2: TBX5 T-box domain R237W (human? (UniProt Q99593 used for …, UniProt Q99593 48-248, R237W))
T2 sequence: T1 sequence with T7I, R190W

T3: TBX5 T-box domain M74V (human? (UniProt Q99593 used for …, UniProt Q99593 48-248, M74V))
T3 sequence: T1 sequence with T7I, M27V

T4: TBX5 T-box domain R113K (human? (UniProt Q99593 used for …, UniProt Q99593 48-248, R113K))
T4 sequence: T1 sequence with T7I, R66K

T5: TBX5 T-box domain I101F (human? (UniProt Q99593 used for …, UniProt Q99593 48-248, I101F))
T5 sequence: T1 sequence with T7I, I54F

B1: Camta1 promoter probe (dsDNA)
DNA 1: GCAGATCTCCTGCTGGGCTGACACCTCACTATCGCAGAACCGTGCCAATGCCGCCGTAAG
DNA 2: CTTACGGCGGCATTGGCACGGTTCTGCGATAGTGAGGTGTCAGCCCAGCAGGAGATCTGC
B2: Nppa (ANF) promoter probe (dsDNA)
DNA 1: CCCGGTTTTGTGATTCTCTCTCTCACACCTTCAGCAGGAACGTGCCAATGCCGCCGTAAG
DNA 2: CTTACGGCGGCATTGGCACGTTCCTGCTGAAGGTGTGAGAGAGAGAATCACAAAACCGGG

Columns and labels:
Assay in all cases: EMSA; EMSA: 50 mM NaCl, 10 mM Tris-HCl pH 8.0, 10% glycerol; protein 0-2000 nM; 30 min at 30 °C then 30 min at room temperature; 6% native PAGE in 0.5x TBE; 3 replicates
Conditions in all cases: protein: recombinant; tags: N-terminal Strep-Tag II, C-terminal 10xHis; label: IRDye 700
TBX5 T-box domain I54T = molecular target: T1, TBX5 T-box domain I54T
TBX5 T-box domain R237W = molecular target: T2, TBX5 T-box domain R237W
TBX5 T-box domain M74V = molecular target: T3, TBX5 T-box domain M74V
TBX5 T-box domain R113K = molecular target: T4, TBX5 T-box domain R113K
TBX5 T-box domain I101F = molecular target: T5, TBX5 T-box domain I101F

Binder | binding signal (TBX5 T-box domain I54T) [fold change in Bmax vs WT] | binding signal (TBX5 T-box domain R237W) [fold change in Bmax vs WT] | binding signal (TBX5 T-box domain M74V) [fold change in Bmax vs WT] | binding signal (TBX5 T-box domain R113K) [fold change in Bmax vs WT] | binding signal (TBX5 T-box domain I101F) [fold change in Bmax vs WT]
B1 | -1.34 | -10.5 | -2.93 | -1.49 | -1.38
B2 | -1.65 | -3.76 | -3.27 | -2.87 | -1.26
